From publication doi:10.1101/2025.04.07.647567 (bioRxiv, 2025) come the findings set out here.

For experiment [1], the target named is recombinant human AXL, biotinylated (human) (UniProt P30530). Put plainly: SPR. Background: SPR reads the build-up and loss of mass on a sensor chip optically.
In the next experiment the target is T1, AXL in mouse lung tissue (mouse (endogenous in mouse lung tissue), UniProt Q00993 19-888).
T1 sequence: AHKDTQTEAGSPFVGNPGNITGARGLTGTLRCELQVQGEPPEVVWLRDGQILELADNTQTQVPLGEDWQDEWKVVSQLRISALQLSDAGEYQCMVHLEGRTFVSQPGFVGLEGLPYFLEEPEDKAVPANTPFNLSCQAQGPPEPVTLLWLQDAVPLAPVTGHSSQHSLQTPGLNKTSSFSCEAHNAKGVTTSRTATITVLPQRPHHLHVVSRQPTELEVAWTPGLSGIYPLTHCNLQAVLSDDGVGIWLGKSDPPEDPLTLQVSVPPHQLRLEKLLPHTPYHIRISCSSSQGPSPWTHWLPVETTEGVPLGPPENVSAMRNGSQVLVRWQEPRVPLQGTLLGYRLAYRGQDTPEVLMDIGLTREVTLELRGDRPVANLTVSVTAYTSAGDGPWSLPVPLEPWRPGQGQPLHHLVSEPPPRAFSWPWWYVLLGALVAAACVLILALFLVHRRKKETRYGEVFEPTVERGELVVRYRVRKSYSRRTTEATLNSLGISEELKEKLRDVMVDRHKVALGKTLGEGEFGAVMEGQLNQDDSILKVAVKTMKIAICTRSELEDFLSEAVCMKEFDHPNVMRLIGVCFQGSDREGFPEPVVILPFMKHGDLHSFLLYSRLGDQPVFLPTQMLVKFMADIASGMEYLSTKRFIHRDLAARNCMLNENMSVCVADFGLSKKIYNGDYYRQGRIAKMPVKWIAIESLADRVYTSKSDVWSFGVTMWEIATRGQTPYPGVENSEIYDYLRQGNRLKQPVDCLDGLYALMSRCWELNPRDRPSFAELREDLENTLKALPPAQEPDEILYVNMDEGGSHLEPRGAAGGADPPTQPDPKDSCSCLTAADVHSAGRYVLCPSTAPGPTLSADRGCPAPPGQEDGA
Briefly: FRET or BRET. (In BRET a luciferase serves as donor, and the signal depends on an acceptor being close.)

recombinant human AXL, biotinylated (human), sequence (P30530 26-894): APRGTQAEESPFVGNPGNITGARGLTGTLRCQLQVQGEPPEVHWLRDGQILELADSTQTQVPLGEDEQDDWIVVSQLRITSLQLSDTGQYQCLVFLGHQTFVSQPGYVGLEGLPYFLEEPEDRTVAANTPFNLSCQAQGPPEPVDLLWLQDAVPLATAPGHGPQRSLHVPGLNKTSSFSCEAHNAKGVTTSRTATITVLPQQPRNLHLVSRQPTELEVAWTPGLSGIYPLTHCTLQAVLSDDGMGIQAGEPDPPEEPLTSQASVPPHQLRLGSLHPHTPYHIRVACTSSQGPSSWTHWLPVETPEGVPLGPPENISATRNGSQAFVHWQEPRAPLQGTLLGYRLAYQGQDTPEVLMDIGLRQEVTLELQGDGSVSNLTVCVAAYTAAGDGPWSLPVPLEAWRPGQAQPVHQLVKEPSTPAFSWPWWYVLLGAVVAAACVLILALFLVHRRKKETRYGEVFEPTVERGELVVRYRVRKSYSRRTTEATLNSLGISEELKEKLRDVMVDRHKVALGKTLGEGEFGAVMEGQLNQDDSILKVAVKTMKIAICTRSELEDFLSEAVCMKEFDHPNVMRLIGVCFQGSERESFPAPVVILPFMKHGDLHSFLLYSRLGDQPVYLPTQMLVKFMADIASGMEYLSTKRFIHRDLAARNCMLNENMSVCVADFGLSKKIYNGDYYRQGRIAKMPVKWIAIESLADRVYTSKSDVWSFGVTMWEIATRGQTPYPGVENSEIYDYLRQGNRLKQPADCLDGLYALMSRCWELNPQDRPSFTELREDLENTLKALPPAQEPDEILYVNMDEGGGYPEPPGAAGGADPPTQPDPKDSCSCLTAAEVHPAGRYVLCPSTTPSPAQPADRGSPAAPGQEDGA

For orientation: Kd means the free concentration of one partner at which half of the binding sites on the other are occupied at equilibrium, for simple one-to-one binding. As for “recombinant human GAS6 (from UniProt Q14393 31-678) (ligand)”, the dissociation constant (Kd) in experiment [1] worked out at 0.11 nM.

Consider “recombinant human PROS1 (from UniProt P07225 42-676) (ligand)”, for which the Kd in experiment [1] worked out at 52.1 nM.

B1: GAS6 in mouse lung tissue (ligand)
chain: VLLRAREAAQFLRPRQRRAYQVFEEAKQGHLERECVEEVCSKEEAREVFENDPETEYFYPRYQECMRKYGRPEEKNPDFAKCVQNLPDQCTPNPCDKKGTHICQDLMGNFFCVCTDGWGGRLCDKDVNECVQKNGGCSQVCHNKPGSFQCACHSGFSLASDGQTCQDIDECTDSDTCGDARCKNLPGSYSCLCDEGYTYSSKEKTCQDVDECQQDRCEQTCVNSPGSYTCHCDGRGGLKLSPDMDTCEDILPCVPFSMAKSVKSLYLGRMFSGTPVIRLRFKRLQPTRLLAEFDFRTFDPEGVLFFAGGRSDSTWIVLGLRAGRLELQLRYNGVGRITSSGPTINHGMWQTISVEELERNLVIKVNKDAVMKIAVAGELFQLERGLYHLNLTVGGIPFKESELVQPINPRLDGCMRSWNWLNGEDSAIQETVKANTKMQCFSVTERGSFFPGNGFATYRLNYTRTSLDVGTETTWEVKVVARIRPATDTGVLLALVGDDDVVPISVALVDYHSTKKLKKQLVVLAVEDVALALMEIKVCDSQEHTVTVSLREGEATLEVDGTKGQSEVSTAQLQERLDTLKTHLQGSVHTYVGGLPEVSVISAPVTAFYRGCMTLEVNGKILDLDTASYKHSDITSHSCPPVEHATP
Regarding B1, in the experiment with AXL in mouse lung tissue, the “FRET efficiency (%Ef) of one coincident region” value came out at 6.96%.
